Experimental data taken from patent US12385055B2, “Compositions and methods for production of salidroside, icariside D2, and precursors of salidroside and icariside D2” (Whitehead Institute for Biomedical Research, priority 2017, dated 2025).

Key:
[1] = target: Rhodiola rosea Rr4HPAAS, 4-hydroxyphenylacetaldehyde synthase, GenBank MF674522, SEQ ID NO: 2 (Rhodiola rosea, UniProt A0A2I6B3P0); assay: Michaelis-Menten kinetics of Rr4HPAAS against aromatic amino acids; details: compared with L-tyrosine and L-DOPA; pH 8.0, 30° C.
Description: (§1) The AAS enzyme assays were performed in 100 μL of reaction buffer (50 mM Tris, pH 8.0) containing 50 μg of recombinant enzyme, 200 μM PLP. Kinetic reactions were incubated with a range of amino acid substrate concentrations (1 μM-4 mM) at 30° C. for 30 minutes prior to quenching with 100 μL of 0.8 M formic acid. […] Rr4HPAAS reactions were also analyzed by LC-MS-UV. 50 μL of reaction mixture was analyzed by an Ultimate 3000 liquid chromatography system (Dionex), equipped with a 150 mm C18 Column (Kinetex 2.6 μm silica core shell C18 100 Å pore, Phenomenex) and coupled to an UltiMate 3000 diode-array detector (DAD) in-line UV-Vis spectrophotometer (Dionex) and a TSQ Quantum Access MAX triple-quadrupole mass spectrometer (Thermo-Scientific). To resolve chromatographically L-tyrosine, tyrosol and 4-HPAAA, compounds were separated through the use of an isocratic mobile phase containing 50 mM monopotassium phosphate pH 4.6, 15% (v/v) acetonitrile and 0.5 mM octyl sulfate. Rr4HPAAS product formation was quantified using the UV absorbance at 280 nm and compared to analytical standards using the diode array detector wavelength at a wavelength range of 200-500 nm and chromatographic retention time. […]
Kinetic constants such as Km and Vmax were determined by fitting raw data to the Michaelis-Menten equation using the nonlinear regression function in Prism (version 7.0).

[2] = 4-HPAA reductase activity assay; type: biochemical; details: 5 mM 4-HPAA, 10 mM NADPH, five-minute time point
Description: The phenylacetaldehyde reductase activity assays using Rr4HPAR1 and RrPAR2 were carried out in 200 μL reaction buffer (50 mM Tris, pH 8.0) at the presence of 2 mM phenylacetaldehyde, 5 mM NADPH and 5 μg of recombinant enzyme. The reactions were incubated at 30° C. for various time points, quenched with an equal volume of 0.8 M formic acid, and extracted by 100 μL of ethyl acetate. The organic phase was then analyzed by gas chromatography-mass spectrometry (GC-MS) using an 5% Phenyl Methyl Silox column (30 m×250 m×0.25 m, Agilent) with a temperature gradient as follows: 0-1 min 45° C., 4-13.33 min 45-185° C. The quadrupole MS was set to EI mode, electron energy at 70 eV, MS-source temperature at 230° C., MS-quad temperature at 150° C., scan mass range at 50-300 m/z and SIM for 120 m/z and 122 m/z. EI-MS spectra were compared against analytical standards. The 4-HPAA reductase activity assays were carried out in 100 μL of 50 mM Tris pH 8.0 with the addition of 5 mM 4-HPAA, 10 mM NADPH and 0.2 μg of Rr4HPAR1 or […] of Rr4HPAR2. […] The reaction mixture was then centrifuged and analyzed by LC-MS. […] Product formation was measured using select ion monitoring in positive mode for a centroid center mass of 121.065 with a scan width of 0.002. The specific activity was determined at a five-minute reaction time point, and quantified against a standard curve of tyrosol.

[3] = Phenylacetaldehyde reductase activity assay; type: biochemical; details: NADPH as co-substrate
Description: FIG. 15 is a chromatogram showing the enzymatic reduction of phenylacetaldehyde to phenylethyl alcohol by Rr4HPAR1 and Rr4HPAR2. Chromatogram of positive ion mode metabolites between 50 and 300 m/z show the depletion of phenylacetaldehyde and production of phenylethyl alcohol when exposed to NADPH and Rr4HPAR1 or RrPAR2. Reactions were carried out in 200 μL 50 mM Tris, pH 8.0 in the presence of 2 mM phenylacetaldehyde, 5 mM NADPH and 50 μg of recombinant enzyme. The reactions were incubated at 30° C. for 25 minutes prior to quenching with 200 μL of 0.8 M formic acid, extracted with 100 μL of ethyl acetate and analyzed by gas chromatography-mass spectrometry. Phenylethyl alcohol was verified by comparison to an authentic standard.
The phenylacetaldehyde reductase activity assays using Rr4HPAR1 and RrPAR2 were carried out in 200 μL reaction buffer (50 mM Tris, pH 8.0) at the presence of 2 mM phenylacetaldehyde, 5 mM NADPH and 5 μg of recombinant enzyme. […] The organic phase was then analyzed by gas chromatography-mass spectrometry (GC-MS) using an 5% Phenyl Methyl Silox column (30 m×250 m×0.25 m, Agilent) with a temperature gradient as follows: 0-1 min 45° C., 4-13.33 min 45-185° C. […] The reaction mixture was then centrifuged and analyzed by LC-MS. […] Product formation was measured using select ion monitoring in positive mode for a centroid center mass of 121.065 with a scan width of 0.002. […]

[4] = Hydrogen peroxide production from L-tyrosine by recombinant AAS candidates; type: biochemical; details: L-tyrosine as substrate
Description: FIG. 12 is a graph showing relative hydrogen peroxide production for the Rr4HPAAS, the RrAAS and the PsTyDC. 100 μL reaction mixtures containing 50 μg of recombinant enzyme, 2 mM L-tyrosine, 50 mM Tris pH 8.0 and 200 μM PLP were incubated at 30° C. for various time points prior to quenching with 100 μL of 0.8 M formic acid. Hydrogen peroxide levels of quenched reaction mixtures were subsequently analyzed using Pierce Quantitative Peroxide Assay Kit against a standard curve of hydrogen peroxide.
as §1, with “PLP.” for “PLP. Kinetic reactions were incubated with a range of amino acid substrate concentrations (1 μM-4 mM) at 30° C. for 30 minutes prior to quenching with 100 μL of 0.8 M formic acid.”, “To resolve chromatographically L-tyrosine, tyrosol and 4-HPAAA, compounds were separated through the use of an isocratic mobile phase containing 50 mM monopotassium phosphate pH 4.6, 15% (v/v) acetonitrile and 0.5 mM octyl sulfate.” left out

[5] = tested on: N. benthamiana leaves; assay: Agrobacterium-mediated transient expression in leaves with LC-HRAM-MS metabolic profiling; type: in vivo; details: leaves harvested 5 days after infiltration
Description: To further evaluate the biochemical function of R. rosea tyrosol glycoside biosynthetic genes in planta, these genes were expressed in N. benthamiana leaves using the Agrobacterium tumefaciens-mediated transient protein production technique (Sainsbury et al., 2009) followed by LC-HRAM-MS-based metabolic profiling. […] PsTyDC and the previously reported Petroselinum crispum 4HPAAS (Pc4HPAAS, GenBank: AAA33861) (Torrens-Spence et al., 2012) were also tested in parallel as controls. […] The chemical identity of these compounds was confirmed by both LC-HRAM-MS and nuclear magnetic resonance (NMR) analyses (FIGS. 20-26). […] Next, the in planta regio-specificity of RrT8GT and RrT4GT in tyrosol glycosylation was evaluated. […] Meanwhile, the accumulation of free tyrosol was reduced in these plants compared to those with Rr4HPAAS expression alone (FIG. 27). […]
Crown tissue and root tissue of a three-month-old R. rosea plant was harvested and stored at −80° C. before subsequent metabolomic analysis. […] The extracts were then analyzed by LC-HRAM-MS. […]

[6] = substrate: N[C@@H](Cc1ccc(O)c(O)c1)C(=O)O; assay: purified protein, by the assay type; details: other: amino acid substrate 1 μM-4 mM, 200 μM PLP, pH 8.0, 30° C., 30 min, peroxide assay
[7] = substrate: N[C@@H](Cc1ccc(O)cc1)C(=O)O; assay: purified protein, by the assay type; details: other: amino acid substrate 1 μM-4 mM, 200 μM PLP, pH 8.0, 30° C., 30 min, peroxide assay
Description: The AAS enzyme assays were performed in 100 μL of reaction buffer (50 mM Tris, pH 8.0) containing 50 μg of recombinant enzyme, 200 μM PLP. Kinetic reactions were incubated with a range of amino acid substrate concentrations (1 μM-4 mM) at 30° C. for 30 minutes prior to quenching with 100 μL of 0.8 M formic acid. […] Rr4HPAAS reactions were also analyzed by LC-MS-UV. 50 μL of reaction mixture was analyzed by an Ultimate 3000 liquid chromatography system (Dionex), equipped with a 150 mm C18 Column (Kinetex 2.6 μm silica core shell C18 100 Å pore, Phenomenex) and coupled to an UltiMate 3000 diode-array detector (DAD) in-line UV-Vis spectrophotometer (Dionex) and a TSQ Quantum Access MAX triple-quadrupole mass spectrometer (Thermo-Scientific). To resolve chromatographically L-tyrosine, tyrosol and 4-HPAAA, compounds were separated through the use of an isocratic mobile phase containing 50 mM monopotassium phosphate pH 4.6, 15% (v/v) acetonitrile and 0.5 mM octyl sulfate. Rr4HPAAS product formation was quantified using the UV absorbance at 280 nm and compared to analytical standards using the diode array detector wavelength at a wavelength range of 200-500 nm and chromatographic retention time. The reduction of aldehyde products was achieved by addition of saturated sodium borohydride in ethanol or by addition of 10 mM NADPH and 10 g of Rr4HPAR1 or Rr4HPAR2.

N[C@@H](Cc1c[nH]c2ccccc12)C(=O)O [L-tryptophan]
substrate preference (Michaelis-Menten kinetics, in words) [1]: much less preferred substrates

N[C@@H](Cc1ccccc1)C(=O)O [L-phenylalanine]
substrate preference (Michaelis-Menten kinetics, in words) [1]: much less preferred substrates

Rr4HPAR1: R. rosea 4-hydroxyphenylacetaldehyde reductase, reduces 4-HPAA to tyrosol
specific activity towards 4-HPAA [2]: 6.9 µmol/min/mg
reduction of phenylacetaldehyde to phenylethanol [3]: higher activity

B1: Rhodiola rosea Rr4HPAAS, 4-hydroxyphenylacetaldehyde synthase, GenBank MF674522, SEQ ID NO: 2 (Rhodiola rosea) (protein)
chain: MGSLPSPNDPSNTFNPMDLTELSTESKLVVDFITQYYQTLETRPVQPRVKPGFLTGQLPDKAPFHGESMEVILSDVNEKIVPGLTHWQSPNFHAYFPASSSNAGLLGELLCSGLSVIGFTWSSSPAATELENVVVDWMAKMLNLPSSFCFSGGGGGVLQANTCEAVLCTLAAARDKALNRVGDDQINKLVLYCSDQTHFTIHKGAKLIGIRSKNIKSITTKKENEFKLCPNDLRDAIRSDLEAGLVPFYVCGTIGTTALGVVDPIKELGKVAREFDLWLHVDGAYGGSACICPEFQHYLDGVDLVDSISMNAHKWLLSNLDCCFLWLQSPNALIESLAAEANFLKGGSEMVDYKDWQISLSRRFRAIKMWMVIRRYGVSNLIEHIRSDVSMAVRFEEMVAADDRFEIVFPRKFALVCFKLSSEKTPPGRDSELTRELMERVNSSGKAYLSGVQMGRIFFIRCVIGSSLTEERHVDNLWRLIQETAQSIVS
hydrogen peroxide production [4]: much higher activity
metabolites produced on expression of the enzyme alone [5]: significant accumulation of both salidroside and icariside D2
Km [6]: 1040 ± 100 µM
Km [7]: 420 ± 20 µM
kcat [7]: 4.92 ± 0.08 s⁻¹
kcat/Km [7]: 11700 M⁻¹ s⁻¹

B2: PsTyDC: Papaver somniferum tyrosine decarboxylase, tested as control (protein, UniProt O82415 1-512, looked up)
Tyrosine decarboxylase: MGSLPTNNLESISLCSQNPLDPDEFRRQGHMIIDFLADYYKNVEKYPVRSQVEPGYLKKRLPESAPYNPESIETILEDVTNDIIPGLTHWQSPNYFAYFPSSGSIAGFLGEMLSTGFNVVGFNWMSSPAATELESIVMNWLGQMLTLPKSFLFSSDGSSGGGGVLQGTTCEAILCTLTAARDKMLNKIGRENINKLVVYASDQTHCALQKAAQIAGINPKNVRAIKTSKATNFGLSPNSLQSAILADIESGLVPLFLCATVGTTSSTAVDPIGPLCAVAKLYGIWVHIDAAYAGSACICPEFRHFIDGVEDADSFSLNAHKWFFTTLDCCCLWVKDSDSLVKALSTSPEYLKNKATESKQVIDYKDWQIALSRRFRSMKLWLVLRSYGVANLRTFLRSHVKMAKHFQGLIGMDNRFEIVVPRTFAMVCFRLKPTAIFKQKIVDNDYIEDQTNEVNVKLLESVNASGKIYMTHAVVGGVYMIRFAVGATLTEERHVTGAWKVVQEHTDAILGA
metabolites produced on expression of the enzyme alone [5]: no measurable production of tyrosol glycosides
